Results taken from article PMC4888889, “Role of VicRKX and GlnR in pH-Dependent Regulation of the Streptococcus salivarius 57.I Urease Operon”.

Target: MalE (MBP) (UniProt P0AEX9 27-396)
Test: EMSA; EMSA: 50 mM Tris-HCl pH 7.4, 50 mM KCl, 2 mM MgCl2, 100 ng poly(dI-dC), 0.5 ug BSA, 0.01 pmol probe, 4 C 30 min; DAPA: 10 mM Tris-HCl pH 7.6, 60 mM KCl, 5% glyc

B1: VicR box probe (dsDNA)
DNA 1: CTAATATGTAAATGTTGCAAAATTTCTGAA
DNA 2: TTCAGAAATTTTGCAACATTTACATATTAG
- binding result: no binding
